Columns and labels:
[1] = biological target: T1, cytochrome c (Homo sapiens, UniProt P99999); conditions: Cc-ANP32B, low ionic strength; ref [31]; cited from earlier work
T1 construct: obtained by immunizing male rabbits with full-length recombinant Cc; made in house; host or cells: E. coli BL21 (DE3)
Text: Although both ANP32A and ANP32B interact with Cc via their C‐terminal region, there are remarkable differences in the thermodynamic parameters and binding surfaces between full‐length ANP32A and ANP32B in complex with Cc (Figure 3C,F).^[ [31] ^] […] These di ...

[2] = test system: histone H3; test: Coimmunoprecipitation of c-myc-ANP32A/B with histone H3; type: binding; conditions: anti-c-myc, Western blot; representative of three experiments
Experimental: HEK293T cells were transfected with a plasmid encoding ANP32A/b-c-myc. 24 h after transfection, cells were collected for lysates preparation in buffer containing 20 mM Tris-HCl pH 7.5, 100 mM NaCl, 0.5% NP40, 0.1 mM PMSF and cOmplete™. Cells were lysed by sonication and precleared by incubation with sepharose-A beads (GE Healthcare, GE17-5280-01) for 1 h at 4 °C. The lysates were then incubated with anti-c-myc (see Pull-down assays) over night at 4 °C and subsequently with sepharose-A beads (GE Healthcare, GE17-5280-01) for 1 h at room temperature with rotation. Following 6 washes with PBS, the samples were resuspended in SDS loading buffer and analyzed by western blotting.

[3] = test system: 15N-labeled Cc; test: NMR titration (1H-15N HSQC) of 15N Cc with ANP32A or ANP32A1-167; type: binding; conditions: low ionic strength; 25 °C
Experimental: NMR titrations of 30 µM ^15N reduced Cc with ^14N ANP32A constructs were followed by 1D ^1H and 2D ^1H-^15N heteronuclear single quantum correlation (HSQC) spectra on a Bruker Avance-III 600 MHz equipped with a cryoprobe at 25 °C. ^15N-labelled reduced Cc (in 10 mM sodium phosphate buffer, pH 7.4) was titrated with increasing amounts of ^14N ANP32A dialyzed against the same buffer. Reduced ^15N Cc and ^14N ANP32A1-167 construct were titrated in 5 mM sodium phosphate buffer pH 6.4. To maintain the redox state of Cc and to adjust the lock signal on the NMR spectrometer, 0.1 mM of sodium ascorbate and 10% of D2O were added, respectively. Data were acquired and processed using TopSpin NMR 3.5pl7 software (Bruker).
Line broadening and chemical-shift perturbation analysis were performed using the Sparky 3 NMR assignment tool (T.D. Goddard and D.G. Kneller, University of California San Francisco, USA). Assignment of ANP32A230-249 and ANP32B232-251 peptides was performed using NMRFAM-SPARKY software distribution (National Magnetic Resonance Facility at Madison) and further imported to CCPNMR ^[1], whereby distance restraints were calculated using its built-in module.

[4] = biological target: T1, cytochrome c; test: ITC titration of full-length ANP32A or ANP32A1-167 with reduced Cc; type: binding; conditions: low ionic strength (25 mM)
Experimental: Isothermal titration calorimetry (ITC) experiments were performed using a Nano ITC Low Volume instrument (TA Instruments, USA). The reference cell was filled with distilled water. Titration experiments between reduced Cc and ANP32A or ANP32A1‐167 consisted of 17 injections of 2.91 µL of a 400 µM reduced Cc solution into the sample cell containing 50 µM ANP32A construct. Both Cc and ANP32A proteins were dialyzed against 10 mM sodium phosphate buffer pH 7.4. Assays performed at moderate ionic strength used the same experimental setup, but proteins were dialyzed against 20 mM sodium phosphate pH 7.4 with 50 mM NaCl. […] ANP32A, ANP32A230‐249 and ANP32B232‐251 titration data were analyzed using Origin 7.0 (OriginLab), employing a single‐ligand binding site model or a two‐ligand binding sites model. […] ANP32A1‐167 titration data was processed and analyzed using NanoAnalyze software (TA instruments).
ITC experiments were performed using a Nano ITC Low Volume instrument (TA Instruments, USA). […] ANP32A, ANP32A230-249 and ANP32B232-251 titration data was analyzed using Origin 7.0 (OriginLab), employing a single ligand binding site model or a two ligand binding sites model. […] ANP32A1-167 titration data were processed and analyzed using NanoAnalyze software (TA instruments).

T1 sequence (P99999 whole entry): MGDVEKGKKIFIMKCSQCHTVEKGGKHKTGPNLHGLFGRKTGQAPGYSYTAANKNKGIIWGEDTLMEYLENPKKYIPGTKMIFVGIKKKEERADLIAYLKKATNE

Row | Molecule | Kd [1] | –TΔS [1] | coimmunoprecipitation of histone H3, in words [2] | chemical-shift perturbations of Cc amide signals, in words [3] | binding to Cc by ITC, in words [4]
1 | ANP32B: acidic leucine‐rich nuclear phosphoprotein 32 B, histone chaperone, paralog of ANP32A (protein, UniProt Q92688 1-251, looked up) Acidic leucine-rich nuclear …: MDMKRRIHLELRNRTPAAVRELVLDNCKSNDGKIEGLTAEFVNLEFLSLINVGLISVSNLPKLPKLKKLELSENRIFGGLDMLAEKLPNLTHLNLSGNKLKDISTLEPLKKLECLKSLDLFNCEVTNLNDYRESVFKLLPQLTYLDGYDREDQEAPDSDAEVDGVDEEEEDEEGEDEEDEDDEDGEEEEFDEEDDEDEDVEGDEDDDEVSEEEEEFGLDEEDEDEDEDEEEEEGGKGEKRKRETDDEGEDD | ~9.5 µM | 16.3 kJ/mol | H3 binds both ANP32 proteins in a similar manner |  | 
2 | ANP32A1‐167: ANP32A construct lacking its LCAR (protein) MEMGRRIHLELRNRTPSDVKELVLDNSRSNEGKLEGLTDEFEELEFLSTINVGLTSIANLPKLNKLKKLELSDNRVSGGLEVLAEKCPNLTHLNLSGNKIKDLSTIEPLKKLENLKSLDLFNCEVTNLNDYRENVFKLLPQLTYLDGYDRDDKEAPDSDAEGYVEGL |  |  |  | no significant chemical‐shift perturbations | unable to interact with Cc even at low ionic strength

From article PMC11948038, “Evolutionary Pro‐To‐Thr Mutation in the Intrinsically Disordered Domain of ANP32 Family Members Modulates Their Target Binding Modes” (Advanced Science, 2025)
